Bounds are passed on as bounds.

The target of data set [1] is F-actin (skeletal muscle actin, polymerised) ( (rabbit or chicken skeletal …, UniProt P68135 1-377)). The data set can be described thus: cell-based or functional assay.
Data set [2] concerns the molecule itself. In words: AUC; sedimentation velocity (SV-AUC), 50 µM protein, 20 °C, 50,000 rpm, absorbance at 280 nm, 20 mM Tris-HCl pH 8.0, SEDFIT c(S) model; buffer (Tris-HCl vs PBS) and salt did not affect the oligomerization state.

B1: N-CAP1, N-terminal fragment of human cyclase-associated protein 1 (original coiled coil and helical folded domain) (domain or fragment, UniProt Q01518 1-220, looked up)
chain: MADMQNLVERLERAVGRLEAVSHTSDMHRGYADSPSKAGAAPYVQAFDSLLAGPVAEYLKISKEIGGDVQKHAEMVHTGLKLERALLVTASQCQQPAENKLSDLLAPISEQIKEVITFREKNRGSKLFNHLSAVSESIQALGWVAMAPKPGPYVKEMNDAAMFYTNRVLKEYKDVDKKHVDWVKAYLSIWTELQAYIKEFHTTGLAWSKTGPVAKELSGL
notes: cyclase-associated protein 1 (CAP1), human; N-terminal coiled coil (a.a. 1-29) followed by the helical folded domain (HFD); Cloned in pET21b; also called CAP1 tetramer; not shown: 6xHis, C-terminal, kept
For the molecule B1, the “potentiation of F-actin severing by 50 nM CFL1 with 750 nM N-CAP construct, single filaments by TIRF microscopy, against CFL1 alone” value in data set [1] was > 2.5 fold. For the same molecule, the “stoichiometry N” value in data set [2] was 4.

B2: N-CAP2, N-terminal fragment of human cyclase-associated protein 2 (original coiled coil and helical folded domain) (domain or fragment, UniProt P40123 1-220, looked up)
chain: MANMQGLVERLERAVSRLESLSAESHRPPGNCGEVNGVIAGVAPSVEAFDKLMDSMVAEFLKNSRILAGDVETHAEMVHSAFQAQRAFLLMASQYQQPHENDVAALLKPISEKIQEIQTFRERNRGSNMFNHLSAVSESIPALGWIAVSPKPGPYVKEMNDAATFYTNRVLKDYKHSDLRHVDWVKSYLNIWSELQAYIKEHHTTGLTWSKTGPVASTVS
notes: cyclase-associated protein 2 (CAP2), human; N-terminal coiled coil (a.a. 1-29) followed by the helical folded domain (HFD); Cloned in pET21b; 30-220, so this construct probably ends at 220 (surmised); also called CAP2 tetramer; not shown: 6xHis, C-terminal, kept
As for B2, the “stoichiometry N” value in data set [2] was found to be 4.

Usually stoichiometry N stands for a count of units in the complex or per binding partner.

These data come from PMC6888645, “Oligomerization Affects the Ability of Human Cyclase-Associated Proteins 1 and 2 to Promote Actin Severing by Cofilins” (International Journal of Molecular Sciences, 2019).
